In patent publication US20180177842A1 (CANIMGUIDE THERAPEUTICS, published 2018):

T1: P3028 (VFDEFKPLVEEPQNLIK, SEQ ID NO: 185), His-tagged (human)
T1 construct: Synthetic fragment of human serum albumin (positions 397-413); used in solution as His-tagged peptide PGE73; also called PGE73; not shown: His-tag
T1 peptide: VFDEFKPLVEEPQNLIK


Target: T1, P3028 (VFDEFKPLVEEPQNLIK, SEQ ID NO: …)
Assay: PEPSCAN ELISA; peptide on chip, His-P3028 added;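 further: peroxidase color development with ABTS and H2O2 substrate, OD405 imaged by CCD camera with image processing and taken as raw values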
For AKLDTFFVKLSLFTER [AKLDTFFVKLSLFTER (SEQ ID NO: 268)], the “RAMPO Score” value was 466 rampo units. In the case of KCLDTFFVKLSLFTER [KCLDTFFVKLSLFTER (SEQ ID NO: 499)], the “RAMPO Score” value is reported as 295 rampo units. In the case of HKLDTFFVKLSLFTER [HKLDTFFVKLSLFTER (SEQ ID NO: 272)], the “RAMPO Score” value is reported as 428 rampo units. With KKKDTFFVKLSLFTER [KKKDTFFVKLSLFTER (SEQ ID NO: 290)] the “RAMPO Score” value was 386 rampo units. KGLDTFFVKLSLFTER [KGLDTFFVKLSLFTER (SEQ ID NO: 412)] was tested, and the “RAMPO Score” value was 405 rampo units. For KDLDTFFVKLSLFTER [KDLDTFFVKLSLFTER (SEQ ID NO: 461)], the “RAMPO Score” value was 335 rampo units. KKLATFFVKLSLFTER [KKLATFFVKLSLFTER (SEQ ID NO: 298)] was tested, and the “RAMPO Score” value was 494 rampo units. KKCDTFFVKLSLFTER [KKCDTFFVKLSLFTER (SEQ ID NO: 283)] was tested, and the “RAMPO Score” value was 432 rampo units. With KKDDTFFVKLSLFTER [KKDDTFFVKLSLFTER (SEQ ID NO: 284)] the “RAMPO Score” value was 492 rampo units. In the case of KKHDTFFVKLSLFTER [KKHDTFFVKLSLFTER (SEQ ID NO: 288)], the “RAMPO Score” value is reported as 477 rampo units. For KILDTFFVKLSLFTER [KILDTFFVKLSLFTER (SEQ ID NO: 467)], the “RAMPO Score” value was 331 rampo units. KFLDTFFVKLSLFTER [KFLDTFFVKLSLFTER (SEQ ID NO: 421)] was tested, and the “RAMPO Score” value was 390 rampo units. With KKEDTFFVKLSLFTER [KKEDTFFVKLSLFTER (SEQ ID NO: 285)] the “RAMPO Score” value was 528 rampo units. In the case of FKLDTFFVKLSLFTER [FKLDTFFVKLSLFTER (SEQ ID NO: 465)], the “RAMPO Score” value is reported as 332 rampo units. In the case of EKLDTFFVKLSLFTER [EKLDTFFVKLSLFTER (SEQ ID NO: 270)], the “RAMPO Score” value is reported as 396 rampo units. KKLCTFFVKLSLFTER [KKLCTFFVKLSLFTER (SEQ ID NO: 449)] was tested, and the “RAMPO Score” value was 344 rampo units. With DKLDTFFVKLSLFTER [DKLDTFFVKLSLFTER (SEQ ID NO: 269)] the “RAMPO Score” value was 373 rampo units. For KELDTFFVKLSLFTER [KELDTFFVKLSLFTER (SEQ ID NO: 441)], the “RAMPO Score” value was 349 rampo units. KKFDTFFVKLSLFTER [KKFDTFFVKLSLFTER (SEQ ID NO: 286)] was tested, and the “RAMPO Score” value was 393 rampo units. For GKLDTFFVKLSLFTER [GKLDTFFVKLSLFTER (SEQ ID NO: 271)], the “RAMPO Score” value was 367 rampo units. In the case of KALDTFFVKLSLFTER [KALDTFFVKLSLFTER (SEQ ID NO: 485)], the “RAMPO Score” value is reported as 309 rampo units. In the case of KHLDTFFVKLSLFTER [KHLDTFFVKLSLFTER (SEQ ID NO: 418)], the “RAMPO Score” value is reported as 394 rampo units. In the case of KKGDTFFVKLSLFTER [KKGDTFFVKLSLFTER (SEQ ID NO: 287)], the “RAMPO Score” value is reported as 563 rampo units. With IKLDTFFVKLSLFTER [IKLDTFFVKLSLFTER (SEQ ID NO: 273)] the “RAMPO Score” value was 483 rampo units. With KKADTFFVKLSLFTER [KKADTFFVKLSLFTER (SEQ ID NO: 282)] the “RAMPO Score” value was 427 rampo units. For KKIDTFFVKLSLFTER [KKIDTFFVKLSLFTER (SEQ ID NO: 289)], the “RAMPO Score” value was 454 rampo units.
